91 sequences from the supplement of paper PMC9112550, “Optimization of the antimicrobial peptide Bac7 by deep mutational scanning” (BMC Biology, 2022) can be followed below.
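Further: peptides expressed intracellularly from a pBAD plasmid library in pooled LB shake-flask culture, induced with 0.3% L-arabinose, DNA abundance read by NGS, three biological replicates, DESeq2 with apeglm shrinkage.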

This data set concerns Escherichia coli TOP10. Briefly: shrunken log2 fold change of peptide-encoding DNA abundance (4.5 h post-induction vs induction); higher = less antimicrobial activity (less host growth inhibition). The note with it: time post-induction: 4.5 h; library: site-saturation at positions 5, 18, 19, 20.
Take RRIRCRPPRLPRPRPRPSATPRP: the “shrunken log2 fold change” value was determined as 0.593.
With RRIRTRPPRLPRPRPRPLDEPRP the figure was 0.23.
With RRIRCRPPRLPRPRPRPGAGPRP the figure was 0.364.
Turning to RRIRHRPPRLPRPRPRPIGWPRP, the “shrunken log2 fold change” value came out at 0.0927.
With RRIRQRPPRLPRPRPRPHRCPRP the figure was 0.109; with RRIRGRPPRLPRPRPRPFTRPRP, 0.0912; with RRIRPRPPRLPRPRPRPVMLPRP, -0.0771.
With RRIRARPPRLPRPRPRPGELPRP the figure was 0.333.
With RRIRGRPPRLPRPRPRPSLQPRP the figure was 1.07; with RRIRVRPPRLPRPRPRPMAVPRP, -0.0191; with RRIRSRPPRLPRPRPRPETSPRP, 0.358.
For RRIRIRPPRLPRPRPRPNMDPRP, the “shrunken log2 fold change” value is -0.874.
With RRIRHRPPRLPRPRPRPRKIPRP the figure was 0.051.
Consider RRIRSRPPRLPRPRPRPIVTPRP, for which the “shrunken log2 fold change” value is -0.192.
With RRIRIRPPRLPRPRPRPCTWPRP the figure was -0.227; with RRIRCRPPRLPRPRPRPSFAPRP, -0.0835.
With RRIRCRPPRLPRPRPRPSVGPRP the figure was 0.0128.
Regarding RRIRERPPRLPRPRPRPFSPPRP, the “shrunken log2 fold change” value was -0.745.
With RRIRHRPPRLPRPRPRPSKNPRP the figure was -0.163; with RRIRIRPPRLPRPRPRPNWTPRP, 0.117.
For the sequence RRIRQRPPRLPRPRPRPYGPPRP, the “shrunken log2 fold change” value was -0.415.
With RRIRKRPPRLPRPRPRPSWFPRP the figure was -0.168; with RRIRRRPPRLPRPRPRPALCPRP, 0.334; with RRIRDRPPRLPRPRPRPRWFPRP, -0.0867.
With RRIRGRPPRLPRPRPRPKQYPRP the figure was 0.234; with RRIRLRPPRLPRPRPRPACCPRP, 0.0218; with RRIRQRPPRLPRPRPRPRNVPRP, -0.0777.
With RRIRGRPPRLPRPRPRPWNMPRP the figure was -0.0271; with RRIRHRPPRLPRPRPRPLLMPRP, -0.0151.
RRIRTRPPRLPRPRPRPFKQPRP: the “shrunken log2 fold change” value was 0.0538.
With RRIRCRPPRLPRPRPRPEKTPRP the figure was -0.0706.
Take RRIRSRPPRLPRPRPRPTPPPRP: the “shrunken log2 fold change” value is 0.43.
As to RRIRDRPPRLPRPRPRPYYCPRP, the “shrunken log2 fold change” value worked out at 0.0391.
Take RRIRARPPRLPRPRPRPGEGPRP: the “shrunken log2 fold change” value was determined as 1.02.
With RRIRYRPPRLPRPRPRPRTCPRP the figure was -0.134; with RRIRLRPPRLPRPRPRPDSGPRP, -0.00166.
As to RRIRARPPRLPRPRPRPIMRPRP, the “shrunken log2 fold change” value amounted to 0.491.
Consider RRIRKRPPRLPRPRPRPAQYPRP, for which the “shrunken log2 fold change” value is -0.141.
Turning to RRIRSRPPRLPRPRPRPLEYPRP, the “shrunken log2 fold change” value was -0.277.
With RRIRQRPPRLPRPRPRPHAFPRP the figure was -0.0738.
With RRIRVRPPRLPRPRPRPAHIPRP the figure was -0.0203; with RRIRQRPPRLPRPRPRPISQPRP, 0.0474.
With RRIRERPPRLPRPRPRPNVCPRP, the “shrunken log2 fold change” value is -0.382.
For RRIRRRPPRLPRPRPRPFIRPRP, the “shrunken log2 fold change” value is -0.326.
With RRIRPRPPRLPRPRPRPILGPRP the figure was -0.148; with RRIRTRPPRLPRPRPRPANRPRP, -0.0396; with RRIRYRPPRLPRPRPRPDKYPRP, 0.0363.
With RRIRMRPPRLPRPRPRPAGQPRP the figure was -0.00902.
With RRIRYRPPRLPRPRPRPCRWPRP the figure was -0.267; with RRIRCRPPRLPRPRPRPGCAPRP, 0.593.
In the case of RRIRYRPPRLPRPRPRPMVAPRP, the “shrunken log2 fold change” value was determined as 0.133.
With RRIRWRPPRLPRPRPRPPSLPRP the figure was 0.115; with RRIRNRPPRLPRPRPRPNRNPRP, -0.91; with RRIRYRPPRLPRPRPRPRLHPRP, -0.415.
As to RRIRVRPPRLPRPRPRPKDFPRP, the “shrunken log2 fold change” value came out at 0.123.
With RRIRERPPRLPRPRPRPESCPRP the figure was -0.0125; with RRIRQRPPRLPRPRPRPEDTPRP, -0.0122.
With RRIRIRPPRLPRPRPRPQTYPRP the figure was -0.636.
With RRIRERPPRLPRPRPRPKMMPRP the figure was -0.153; with RRIRLRPPRLPRPRPRPTDYPRP, -0.286; with RRIRNRPPRLPRPRPRPTSMPRP, 0.0812.
Regarding RRIRYRPPRLPRPRPRPICLPRP, the “shrunken log2 fold change” value was -0.219.
With RRIRCRPPRLPRPRPRPRELPRP the figure was 0.506; with RRIRGRPPRLPRPRPRPRKTPRP, 0.375.
With RRIRERPPRLPRPRPRPACCPRP the figure was 0.0931.
Consider RRIRCRPPRLPRPRPRPTPFPRP, for which the “shrunken log2 fold change” value amounted to 0.207.
As to RRIRERPPRLPRPRPRPETLPRP, the “shrunken log2 fold change” value was -0.0176.
Take RRIRNRPPRLPRPRPRPFGAPRP: the “shrunken log2 fold change” value is 0.00377.
With RRIRKRPPRLPRPRPRPITYPRP the figure was -0.193; with RRIRRRPPRLPRPRPRPHIRPRP, 0.00753.
With RRIRHRPPRLPRPRPRPMMSPRP the figure was 0.0372.
With RRIRARPPRLPRPRPRPLNEPRP the figure was 0.137; with RRIRYRPPRLPRPRPRPHHTPRP, -0.418; with RRIRARPPRLPRPRPRPLHGPRP, 0.155.
For RRIRMRPPRLPRPRPRPGVEPRP, the “shrunken log2 fold change” value was 1.39.
Consider RRIRTRPPRLPRPRPRPTHKPRP, for which the “shrunken log2 fold change” value was -0.0156.
With RRIRIRPPRLPRPRPRPLYRPRP the figure was -0.384; with RRIRDRPPRLPRPRPRPKIQPRP, 0.0161; with RRIRYRPPRLPRPRPRPKASPRP, -0.131.
With RRIRCRPPRLPRPRPRPSLFPRP the figure was -0.293; with RRIRHRPPRLPRPRPRPTKEPRP, -0.0586.
RRIRCRPPRLPRPRPRPYPQPRP: the “shrunken log2 fold change” value was -0.595.
RRIRARPPRLPRPRPRPKAFPRP: the “shrunken log2 fold change” value came out at 0.269.
With RRIRQRPPRLPRPRPRPRMPPRP the figure was 0.216; with RRIRLRPPRLPRPRPRPTNYPRP, -0.251.
With RRIRIRPPRLPRPRPRPDMDPRP the figure was -0.122; with RRIRERPPRLPRPRPRPAENPRP, -0.27; with RRIRMRPPRLPRPRPRPPGIPRP, 1.2.
On to RRIRNRPPRLPRPRPRPFNSPRP, for which the “shrunken log2 fold change” value was -0.0382.
With RRIRERPPRLPRPRPRPSNIPRP the figure was -0.662.
With RRIRDRPPRLPRPRPRPVIMPRP the figure was -0.381.
